Results taken from PMC7473855.

Target: SARS-CoV-2 prefusion-stabilized spike ectodomain with a C-terminal T4 fibritin trimerization motif (SARS-CoV-2) (UniProt P0DTC2)
Test: cryo-EM structure

Ty1 nanobody (VHH), sequence (VHH): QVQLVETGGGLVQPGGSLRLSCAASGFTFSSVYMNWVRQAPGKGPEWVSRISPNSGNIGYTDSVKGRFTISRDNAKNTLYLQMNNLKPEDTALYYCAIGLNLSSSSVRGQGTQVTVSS

Ty1 nanobody (VHH)
stoichiometry N (Ty1 per spike trimer): 3
